Data on 2 substances can be found in article PMC12578325.

In this assay the target is Bluetongue virus serotype 1 (BTV-1) outer capsid protein VP2. In words: Co-IP with anti-NS3 antibody, densitometry of VP2 band. To be noted: parent: est. 1.0; read off a plot.

On to “Bluetongue virus serotype 1 (BTV-1) non-structural glycoprotein NS3, wild type N150A”, for which the ratio to parent (relative fold change) came out at 0.61.
Turning to “Bluetongue virus serotype 1 (BTV-1) non-structural glycoprotein NS3, wild type K196A; K197A; E198A”, the ratio to parent (relative fold change) was 0.56.
